For assay [1], the target named is whole LFA-1 in which the α subunit contains an I-domain in the low affinity locked closed state, on cells (LA cells) (human) (UniProt P05107). The experiment in a line: phage ELISA, LA form of LFA-1, with Mg2+. Background: ELISA stands for enzyme-linked immunosorbent assay.
Assay [2] has the same target. Briefly: phage ELISA, LA form of LFA-1, without Mg2+.
The target of assay [3] is human wild-type LFA-1 on cells (human) (UniProt P20701). Briefly: inhibition of ICAM binding to human PBMCs; average of four experiments.
In assay [4] the target is whole LFA-1 in which the α subunit contains an I-domain in the high affinity locked open state, on cells (HA cells) (human) (UniProt P05107). Briefly: inhibition of ICAM binding to HA cells, Guava analysis; first experiment.
The target is the same in assay [5]. The experiment in a line: inhibition of ICAM binding to HA cells, Guava analysis; third experiment.
The target is the same in assay [6]. The experiment in a line: inhibition of ICAM binding to HA cells, Guava analysis; fourth experiment.
The target is the same in assay [7]. Briefly: inhibition of ICAM binding to HA cells, Guava analysis; second experiment.

Drawing on patent publication US20080069777A1, this text covers ELISA signal (arbitrary units) and IC50 for three substances.

As a reminder, the IC50 is the concentration at which inhibition is half-maximal. Higher therefore signals lower potency.

Chain of human wild-type LFA-1 on cells (human) (P20701 other isoform, or with tags, fused parts or gaps limits assumed, chain 1 of 2): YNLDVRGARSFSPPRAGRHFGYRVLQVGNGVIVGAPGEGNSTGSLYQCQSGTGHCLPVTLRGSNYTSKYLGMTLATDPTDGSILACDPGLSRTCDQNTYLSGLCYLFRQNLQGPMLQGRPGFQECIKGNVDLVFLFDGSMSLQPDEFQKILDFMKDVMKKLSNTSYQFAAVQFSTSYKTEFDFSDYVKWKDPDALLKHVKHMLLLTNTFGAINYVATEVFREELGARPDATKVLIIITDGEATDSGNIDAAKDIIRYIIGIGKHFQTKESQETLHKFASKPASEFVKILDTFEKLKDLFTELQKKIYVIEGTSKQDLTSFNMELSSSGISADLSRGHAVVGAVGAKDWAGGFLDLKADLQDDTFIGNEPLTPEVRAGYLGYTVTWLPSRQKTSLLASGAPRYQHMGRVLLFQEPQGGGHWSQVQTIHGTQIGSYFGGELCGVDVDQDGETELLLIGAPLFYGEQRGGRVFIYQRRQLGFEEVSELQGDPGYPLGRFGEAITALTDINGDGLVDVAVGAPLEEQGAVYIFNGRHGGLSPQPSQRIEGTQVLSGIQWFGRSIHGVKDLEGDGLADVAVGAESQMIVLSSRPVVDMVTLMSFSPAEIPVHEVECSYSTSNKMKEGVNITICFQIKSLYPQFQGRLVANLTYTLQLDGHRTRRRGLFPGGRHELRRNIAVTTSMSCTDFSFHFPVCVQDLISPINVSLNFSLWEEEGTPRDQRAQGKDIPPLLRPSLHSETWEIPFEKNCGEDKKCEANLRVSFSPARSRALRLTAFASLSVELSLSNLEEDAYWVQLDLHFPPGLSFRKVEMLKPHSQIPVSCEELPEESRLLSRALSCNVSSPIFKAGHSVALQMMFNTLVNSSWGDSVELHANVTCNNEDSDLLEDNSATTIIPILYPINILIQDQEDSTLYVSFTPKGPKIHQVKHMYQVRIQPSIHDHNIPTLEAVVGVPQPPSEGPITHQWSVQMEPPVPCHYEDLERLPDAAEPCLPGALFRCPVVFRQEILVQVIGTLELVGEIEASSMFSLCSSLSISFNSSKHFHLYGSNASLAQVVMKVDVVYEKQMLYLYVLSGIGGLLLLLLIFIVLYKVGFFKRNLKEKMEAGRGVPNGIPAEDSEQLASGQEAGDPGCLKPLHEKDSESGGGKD
Chain of human wild-type LFA-1 on cells (human) (chain, as listed by the source limits assumed, chain 2 of 2): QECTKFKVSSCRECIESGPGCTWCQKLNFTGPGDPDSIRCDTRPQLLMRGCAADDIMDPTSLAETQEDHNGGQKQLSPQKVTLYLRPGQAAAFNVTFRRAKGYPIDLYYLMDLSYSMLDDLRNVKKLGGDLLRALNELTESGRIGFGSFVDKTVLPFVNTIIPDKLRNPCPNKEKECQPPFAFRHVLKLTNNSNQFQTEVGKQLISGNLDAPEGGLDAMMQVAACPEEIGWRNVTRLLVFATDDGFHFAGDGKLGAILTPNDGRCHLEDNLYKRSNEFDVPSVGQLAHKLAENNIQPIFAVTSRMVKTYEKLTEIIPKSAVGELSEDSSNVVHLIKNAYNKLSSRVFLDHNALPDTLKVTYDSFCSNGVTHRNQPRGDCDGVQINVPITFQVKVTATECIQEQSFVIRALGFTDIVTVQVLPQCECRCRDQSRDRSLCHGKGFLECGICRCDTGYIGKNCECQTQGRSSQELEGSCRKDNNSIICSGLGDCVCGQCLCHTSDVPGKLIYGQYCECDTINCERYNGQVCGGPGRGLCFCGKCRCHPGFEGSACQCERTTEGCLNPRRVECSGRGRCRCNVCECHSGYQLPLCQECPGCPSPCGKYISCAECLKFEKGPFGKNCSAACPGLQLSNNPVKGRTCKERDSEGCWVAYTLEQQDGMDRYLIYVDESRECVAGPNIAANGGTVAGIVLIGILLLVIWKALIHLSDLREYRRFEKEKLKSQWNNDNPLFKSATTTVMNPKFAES

Take “Control #1 (a phage that binds to a different target)”: the ELISA signal (arbitrary units) was 0.13 in assay [1] and 0.07 in assay [2].

Turning to “Control #2 (another protein that binds to a different target)”, the ELISA signal (arbitrary units) in assay [1] is 0.14; in assay [2], 0.07.

Regarding MHM24 IgG (antibody), the IC50 in assay [3] came to 0.33 nM; in assay [4], 0.24 nM; in assay [5], 0.59 nM; in assay [6] it was 2.4 nM; in assay [7], 1.8 nM.
